We go through one molecule from patent US20230212306A1 (Daiichi Sankyo, published 2023).

Assay [1] addresses T1, mouse TLR7-Flag, expressed in HEK293 cells (mouse, UniProt P58681 27-1050).
T1 construct: not shown: Flag tag
T1 sequence: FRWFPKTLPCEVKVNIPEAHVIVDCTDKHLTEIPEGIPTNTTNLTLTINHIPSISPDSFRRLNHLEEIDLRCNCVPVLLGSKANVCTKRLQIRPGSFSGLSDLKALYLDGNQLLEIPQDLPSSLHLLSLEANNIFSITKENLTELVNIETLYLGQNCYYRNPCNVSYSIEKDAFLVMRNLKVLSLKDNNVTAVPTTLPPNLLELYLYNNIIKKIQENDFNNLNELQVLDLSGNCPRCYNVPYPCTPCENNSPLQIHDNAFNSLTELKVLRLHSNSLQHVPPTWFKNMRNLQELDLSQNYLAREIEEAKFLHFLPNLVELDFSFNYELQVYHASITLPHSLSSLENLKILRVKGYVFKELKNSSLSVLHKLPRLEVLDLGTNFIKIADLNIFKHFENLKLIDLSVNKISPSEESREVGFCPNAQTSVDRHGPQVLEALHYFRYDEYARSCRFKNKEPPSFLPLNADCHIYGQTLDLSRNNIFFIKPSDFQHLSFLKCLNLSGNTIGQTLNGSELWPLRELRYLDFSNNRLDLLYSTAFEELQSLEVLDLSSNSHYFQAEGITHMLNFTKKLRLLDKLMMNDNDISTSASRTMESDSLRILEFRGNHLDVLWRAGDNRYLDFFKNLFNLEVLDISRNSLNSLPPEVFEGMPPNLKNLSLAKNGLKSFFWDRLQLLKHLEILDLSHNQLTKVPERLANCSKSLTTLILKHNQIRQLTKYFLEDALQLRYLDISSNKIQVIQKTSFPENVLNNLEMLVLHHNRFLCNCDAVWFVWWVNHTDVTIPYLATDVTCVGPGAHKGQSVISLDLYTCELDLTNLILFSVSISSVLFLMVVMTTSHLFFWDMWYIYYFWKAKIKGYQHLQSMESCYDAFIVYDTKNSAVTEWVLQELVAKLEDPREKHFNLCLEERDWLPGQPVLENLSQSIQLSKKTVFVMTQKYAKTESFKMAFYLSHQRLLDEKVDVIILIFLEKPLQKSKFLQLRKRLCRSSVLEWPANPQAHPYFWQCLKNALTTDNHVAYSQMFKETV
Nature of the assay: flow cytometry on fixed and permeabilised HEK293 cells expressing mouse TLR7-Flag. From the text: (§1) The HEK293 cells expressing human TLR7 (variant 1)-Flag prepared in 8)-1, the HEK293 cells expressing human TLR7 (variant 2)-Flag prepared in 8)-2, the HEK293 cells expressing monkey TLR7-Flag prepared in 8)-3, the HEK293 cells expressing mouse TLR7-Flag prepared in 8)-4, and the HEK293 cells expressing rat TLR7-Flag prepared in 8)-5 were immobilized/subjected to membrane permeation with a Fixation and Permeabilization Solution (Becton, Dickinson and Company) and thereafter stained using huAT01_H3L2_IgG1LALA, which is one of the humanized anti-human TLR7 antibodies, and ALEXA FLUOR® 647 AffiniPure Goat anti-human IgG+IgM (H+L) (Jackson ImmunoResearch Inc.), which is the secondary antibody.
(§2) The binding of the humanized anti-human TLR7 antibody to human TLR7 was detected based on flow cytometry (Miltenyi Biotec K.K.), and the data was analyzed using software (Flowjo) which analyzes the data of flow cytometry.
On the technique in general: In flow cytometry, cells or beads pass a laser one at a time.

The target in assay [2] is T2, human TLR7 (variant 2)-Flag, expressed in HEK293 cells (human, UniProt Q9NYK1 27-1049).
T2 construct: Transient expression from pcDNA3.1 in Lenti-X HEK293T cells; cells fixed and permeabilised before staining; not shown: Flag tag
T2 sequence: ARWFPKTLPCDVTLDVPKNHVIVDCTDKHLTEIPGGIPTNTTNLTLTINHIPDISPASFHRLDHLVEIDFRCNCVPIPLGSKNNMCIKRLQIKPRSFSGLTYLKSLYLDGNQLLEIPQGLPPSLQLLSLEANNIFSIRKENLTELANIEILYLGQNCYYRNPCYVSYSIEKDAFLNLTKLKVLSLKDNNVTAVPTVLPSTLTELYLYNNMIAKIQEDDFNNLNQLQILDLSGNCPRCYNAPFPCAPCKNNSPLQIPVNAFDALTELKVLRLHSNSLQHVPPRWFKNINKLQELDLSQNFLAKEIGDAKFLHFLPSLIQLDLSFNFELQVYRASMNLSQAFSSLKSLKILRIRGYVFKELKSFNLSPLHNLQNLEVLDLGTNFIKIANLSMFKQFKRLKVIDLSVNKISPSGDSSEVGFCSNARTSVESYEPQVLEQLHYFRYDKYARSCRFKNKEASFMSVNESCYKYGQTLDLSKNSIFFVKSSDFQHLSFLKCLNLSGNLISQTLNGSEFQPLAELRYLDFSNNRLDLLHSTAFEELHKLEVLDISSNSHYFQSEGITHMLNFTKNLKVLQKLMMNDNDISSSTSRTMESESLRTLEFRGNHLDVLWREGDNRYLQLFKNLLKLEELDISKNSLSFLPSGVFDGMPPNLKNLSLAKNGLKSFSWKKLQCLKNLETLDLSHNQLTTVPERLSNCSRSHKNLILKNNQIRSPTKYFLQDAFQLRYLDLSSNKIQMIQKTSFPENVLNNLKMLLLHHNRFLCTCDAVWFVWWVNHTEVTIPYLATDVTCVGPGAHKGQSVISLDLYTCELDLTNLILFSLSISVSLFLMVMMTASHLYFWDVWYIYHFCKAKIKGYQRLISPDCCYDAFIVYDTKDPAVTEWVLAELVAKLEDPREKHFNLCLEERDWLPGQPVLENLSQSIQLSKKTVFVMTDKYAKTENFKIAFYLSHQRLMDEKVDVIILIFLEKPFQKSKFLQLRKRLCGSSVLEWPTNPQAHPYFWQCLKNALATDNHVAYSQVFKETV
Kind of assay: flow cytometry on fixed and permeabilised HEK293 cells expressing human TLR7 (variant 2)-Flag.
Source text: as §1, §2

B1: huAT01_H3L2_IgG1LALA antibody (antibody, V domains shown)
VH: QVQLVQSGAEVKKPGASVKVSCKASGYTFTNNWLHWVRQAPGQGLEWMGDIYPSNGRTNYAQKFQGRVTLTVDKSTSTAYMELSSLRSEDTAVYFCARERGYFDYWGQGTLVTVSS
VL: DIQMTQSPSSLSASVGDRVTITCKASQDINKYIAWYQQKPGKAPKLLIHYTSTLQPGIPSRFSGSGSGRDYTLTISSLQPEDFATYYCLQYDYLLTFGQGTKVEIKR
notes: Humanized AT01; heavy huAT01_H3_IgG1LALA, light huAT01_L2
As to B1, the results for the binding result in assay [1] and in assay [2] were “no binding” and “binds”, respectively.
